# Assay results reported in US20260055173A1.
# Assays:
# [1] = molecular target: monkey PD-1 (ACRO, His tag) (monkey) (UniProt B0LAJ3); assay: ELISA, monkey PD-1 (His tag) coated, anti-human IgG Fc-HRP
# [2] = molecular target: human VEGF (ACRO, His tag) (human) (UniProt P15692); assay: ELISA, human VEGF (His tag) coated, anti-human IgG Fc-HRP
# [3] = molecular target: biotin-labeled human VEGF (ACRO, biotinylated protein) (human) (UniProt P15692); assay: dual (bridging) ELISA: human PD-1 (His tag) coated, antibody, then biotinylated human VEGF, streptavidin-HRP
# Sequence of biotin-labeled human VEGF (ACRO, biotinylated protein) (human) (P15692 other isoform, or with tags, fused parts or gaps limits assumed): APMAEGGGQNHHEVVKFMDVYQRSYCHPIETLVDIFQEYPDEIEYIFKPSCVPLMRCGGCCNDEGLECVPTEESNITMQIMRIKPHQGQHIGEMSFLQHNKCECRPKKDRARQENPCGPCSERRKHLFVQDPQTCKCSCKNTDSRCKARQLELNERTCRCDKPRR
# Sequence of monkey PD-1 (ACRO, His tag) (monkey) (B0LAJ3 entry or part of it limits assumed, form in doubt): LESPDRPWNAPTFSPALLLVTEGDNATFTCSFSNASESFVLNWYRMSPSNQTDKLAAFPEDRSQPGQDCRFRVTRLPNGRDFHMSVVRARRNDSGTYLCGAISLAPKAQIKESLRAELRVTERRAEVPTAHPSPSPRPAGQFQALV
# Sequence of human VEGF (ACRO, His tag) (human) (P15692 other isoform, or with tags, fused parts or gaps limits assumed): as the sequence (P15692 other isoform, or with tags, fused parts or gaps limits assumed) above
EC50 [1],TOP OD [1],TOP OD [2],TOP OD [3],Substance
0.187 nM,3.08 OD450,–,–,Keytruda (antibody)
0.153 nM,2.99 OD450,0.048 OD450,0.048 OD450,Opdivo (antibody)
